Laboratory results reported in US5935824A, “Protein expression system” (Technologene, Inc., priority 1996, dated 1999).

Substrate: C[C@H](NC(=O)[C@H](Cc1ccccc1)NC(=O)OCc1ccccc1)C(=O)O
Assay: Flow digestion of N-CBZ-peptides through CPD-Y Acti Disk, ninhydrin assays
Assay type: biochemical, yeast
Details: other: free enzyme; calculated from Sigma specific activity
Procedure: The reported Km values for CPD-Y have been generated using extremely low enzyme concentration compared to substrate concentration. The value for Km represents the concentration of substrate that will produce 1/2 the maximum velocity for the initial reaction rates. During the testing of the immobilized CPD-Y enzyme disks with various dipeptide substrates, the maximum flow rate that can be achieved without any substantial increase in the pressure of the solution, is 4 ml/min. At this flow rate, the substrate remains within the immobilized enzyme matrix for 1.74 seconds. This value is determined by dividing the internal porous volume of the matrix to which the enzyme is immobilized (115 μL/4000 μL, min^-1). […]
Standard ninhydrin assay: Hydrolysis of the non-proline containing N-CBZ-dipeptides was determined by assaying the amount of free amino acid released by a colorometric ninhydrin reaction at a pH greater than 5.2. […] Samples were then cooled to room temperature and 600 μl of 60% ethanol was added as the diluent and the absorbance was read at 570 nm on a Beckman DU 7000 spectrophotometer.
Proline ninhydrin assay: Hydrolysis of proline-containing N-CBZ-dipeptides were measured with a modified version of the assay described by Magne and Larher [Anal. Biochem., 200:115 (1982)]. […]

B1: carboxypeptidase Y (CPD-Y) immobilized to Acti-Disk (Saccharomyces cerevisiae S288C) (protein)
chain: KIKDPKILGIDPNVTQYTGYLDVEDEDKHFFFWTFESRNDPAKDPVILWLNGGPGCSSLTGLFFELGPSSIGPDLKPIGNPYSWNSNATVIFLDQPVNVGFSYSGSSGVSNTVAAGKDVYNFLELFFDQFPEYVNKGQDFHIAGESYAGHYIPVFASEILSHKDRNFNLTSVLIGNGLTDPLTQYNYYEPMACGEGGEPSVLPSEECSAMEDSLERCLGLIESCYDSQSVWSCVPATIYCNNAQLAPYQRTGRNVYDIRKDCEGGNLCYPTLQDIDDYLNQDYVKEAVGAEVDHYESCNFDINRNFLFAGDWMKPYHTAVTDLLNQDLPILVYAGDKDFICNWLGNKAWTDVLPWKYDEEFASQKVRNWTASITDEVAGEVKSYKHFTYLRVFNGGHMVPFDVPENALSMVNEWIHGGFSL
notes: purchased Sigma
Work on B1 yielded a kcat of 103.3 s⁻¹.
